Experimental data taken from patent US20030219899A1.

Legend:
Test in all cases: cell-based or functional assay
[1] = biological target: hCAR-tailless, truncation mutant of human CAR lacking the cytoplasmic domain (human) (UniProt P78310)
[2] = biological target: human coxsackie-adenovirus receptor (hCAR) (human) (UniProt P78310)
Ad3 receptor = biological target: Ad3 receptor

“Ad5 wild-type fiber, as displayed on Ad5luc1 (from UniProt P11818 1-581)” was tested, and the Ad5luc1 luciferase activity (normalized to Ad5/3luc1) in U118-hCAR-tailless cells against parental U118 cells [1] was 16 fold and the Ad5luc1 luciferase activity (normalized to Ad5/3luc1) in U118-hCAR cells against parental U118 cells [2] was 11 fold.
With “mosaic adenovirus AdMSluc1 displaying both the Ad5 wild-type fiber and the Ad5/3 chimeric fiber on the same virion (from UniProt P11818 1-581; P11818 1-399; P04501 132-319)” the luciferase gene transfer of AdMSluc1 to C33A cells in the presence of purified Ad3 knob (Ad3 receptor) was 100 µg/mL, the AdMSluc1 luciferase activity (normalized to Ad5/3luc1) in U118-hCAR-tailless cells against parental U118 cells [1] was 7.5 fold and the AdMSluc1 luciferase activity (normalized to Ad5/3luc1) in U118-hCAR cells against parental U118 cells [2] was 6 fold. It also gave a luciferase gene transfer of AdMSluc1 to C33A cells in the presence of purified Ad5 knob; lowest knob concentration with significant block [2] of 0.1 µg/mL.
For “recombinant Ad3 fiber knob protein with N-terminal 6xHis tag expressed in E. coli (from UniProt P04501 119-319)”, the luciferase activity of Ad5/3luc1 on HeLa cells with 100 µg/ml Ad3 knob, against that without knob protein (% of activity without knob protein) (Ad3 receptor) was under 5.
With “recombinant Ad5 fiber knob protein with N-terminal 6xHis tag expressed in E. coli (from UniProt P11818 387-581)” the luciferase activity of Ad5luc1 on HeLa cells with 100 µg/ml Ad5 knob, against that without knob protein (% of activity without knob protein) [2] was under 5.
